Experimental data taken from PMC4476070.
Where two headings read alike, the source gives them in different places.

Columns and labels:
[1] = target: T1, DMRT1 full-length;DMRT1 R111G (Homo sapiens;Homo sapiens, UniProt Q9Y5R6;Q9Y5R6 1-373;1-373, |R111G); assay: EMSA
[2] = target: T2, DMRT1 full-length (Homo sapiens, UniProt Q9Y5R6 1-373); assay: EMSA
[3] = target: T3, SUMO-DMRT1 67-136 (Homo sapiens, UniProt Q9Y5R6 67-136); assay: EMSA
[4] = target: T1, DMRT1 full-length;DMRT1 R111G; assay: EMSA; remark: listed apart in the source
[5] = target: T2, DMRT1 full-length; assay: EMSA; remark: listed apart in the source
[6] = target: DMRT1 R123A (Homo sapiens, UniProt Q9Y5R6 1-373, R123A); assay: EMSA
Chain of DMRT1 R123A (Q9Y5R6 whole entry R123A): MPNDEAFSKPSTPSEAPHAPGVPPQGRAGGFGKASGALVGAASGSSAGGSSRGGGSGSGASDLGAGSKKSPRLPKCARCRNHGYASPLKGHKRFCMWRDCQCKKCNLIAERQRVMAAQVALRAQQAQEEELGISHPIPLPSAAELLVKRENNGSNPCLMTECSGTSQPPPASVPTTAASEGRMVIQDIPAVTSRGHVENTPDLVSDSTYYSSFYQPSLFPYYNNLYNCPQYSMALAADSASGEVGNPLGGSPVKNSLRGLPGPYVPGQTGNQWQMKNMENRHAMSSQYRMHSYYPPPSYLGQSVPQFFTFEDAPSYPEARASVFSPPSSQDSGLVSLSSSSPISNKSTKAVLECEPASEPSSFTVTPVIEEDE

[7] = target: DMRT1 R123Q (Homo sapiens, UniProt Q9Y5R6 1-373, R123Q); assay: EMSA
Chain of DMRT1 R123Q (Q9Y5R6 whole entry R123Q): as the sequence (Q9Y5R6 whole entry R123A) above, with A123Q counted along it

[8] = target: T2, DMRT1 full-length; assay: EMSA; remark: listed apart in the source
[9] = target: T3, SUMO-DMRT1 67-136; assay: EMSA; remark: listed apart in the source
[10] = target: DMRT1 67-136 (Homo sapiens, UniProt Q9Y5R6 67-136); assay: X-ray crystallography
Chain of DMRT1 67-136 (Q9Y5R6 67-136): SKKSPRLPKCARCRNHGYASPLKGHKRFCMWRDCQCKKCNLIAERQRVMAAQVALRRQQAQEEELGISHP

T2 sequence (Q9Y5R6 whole entry): as the sequence (Q9Y5R6 whole entry R123A) above, with A123R counted along it
T1 sequence (Q9Y5R6 whole entry, stated change not applied, chain 1 of 2): as the sequence (Q9Y5R6 whole entry R123A) above, with A123R counted along it
T1 sequence (Q9Y5R6 whole entry R111G, chain 2 of 2): as the sequence (Q9Y5R6 whole entry R123A) above, with R111G, A123R counted along it
T3 sequence (Q9Y5R6 67-136): as the sequence (Q9Y5R6 67-136) above

B1: Site 1 (27 bp) (dsDNA)
DNA 1: GAGATTTGATACATTGTTGCTCGATGG
DNA 2: CCATCGAGCAACAATGTATCAAATCTC
- binding result [1]: binds
- binding result [2]: binds
- binding result [3]: binds

B2: Sox9 site (dsDNA)
DNA 1: GTGGCTGGGCACCCTGCAGAGACAATGTTTCCAGCTGCAGGTCAGGTCT
DNA 2: AGACCTGACCTGCAGCTGGAAACATTGTCTCTGCAGGGTGCCCAGCCAC
- binding result [2]: binds
- binding result [4]: binds

B3: Site 3 (27 bp) (dsDNA)
DNA 1: GAGATTTGATACATTATTAATTTATGG
DNA 2: CCATAAATTAATAATGTATCAAATCTC
- binding result [5]: binds

B4: Site 1 (49 bp) (dsDNA)
DNA 1: GTGGCTGGGCAGAGATTTGATACATTGTTGCTCGATGGAGGTCAGGTCT
DNA 2: AGACCTGACCTCCATCGAGCAACAATGTATCAAATCTCTGCCCAGCCAC
- binding result [6]: no binding
- binding result [7]: no binding

B5: Site 2 (27 bp) (dsDNA)
DNA 1: GAGATTTGATACATTGTTACTTTATGG
DNA 2: CCATAAAGTAACAATGTATCAAATCTC
- binding result [8]: binds

B6: Site 4 (27 bp) (dsDNA)
DNA 1: TTGCTATGATACATTGTATCTTGCTGG
DNA 2: CCAGCAAGATACAATGTATCATAGCAA
- binding result [9]: binds

B7: Site 1 crystal 25-mer (dsDNA)
DNA 1: CGAGATTTGATACATTGTTGCTCGA
DNA 2: TCGAGCAACAATGTATCAAATCTCG
- binding result [10]: binds
